Earlier results, collected in US20230142365A1, “POLY(SARCOSINE) POLYMER EXCIPIENTS” (CALUSA BIO, LLC, priority 2021, published 2023).

System: anti-drug antibodies (ADAs)
Conditions: share of anti-drug antibodies against the TNF blocker that are neutralizing; van Schie et al. 2015

Substance	ADAs neutralizing [%]
adalimumab	97
infliximab: tumor necrosis factor (TNF) blocker Remicade (infliximab)	90
